Test results: patent US10000775B2, “Biosynthesis of 1-undecene and related terminal olefins” (The Regents of the University of California, priority 2013, dated 2018)

Assay: In vitro activity of PFL_4321 and PFL_0203 toward fatty acids with various chain lengths
Format: biochemical
Design: key to In vitro activity toward C8:0 / In vitro activity toward C10:0 / In vitro activity toward C12:0 / In vitro activity toward C14:0 / In vitro activity toward C16:0: ✓: indicates production of the corresponding 1-alkene from the indicated substrate; x: indicates failure to produce the corresponding 1-alkene from the indicated substrate
Method: A typical condition is as follows: 1 mL of reaction mixture contains 50 mM MES buffer (pH 6.2), 300 mM NaCl, 100 μM (NH4)2Fe(SO4)2, 1 mM ascorbic acid, 100 μM fatty acid substrate or analogs, and 10 μM enzyme. The reaction was performed in a sealed headspace vial at 30° C., initiated by adding lauric acid and quenched by injecting equal volume of 5 M NaOH. 1-Undecene production was analyzed and quantified by using the SPME-GCMS method. To determine the kinetic parameters of PFL_4321 on lauric acid, initial velocities at 1, 10, 20, 50, 100, and 150 μM of lauric acid were measured (25 mM lauric acid solution was prepared by adding 0.5% tergitol and heating at 65° C. for 10 min). The reactions were quenched at 2, 4, 6, 8, and 10 seconds, and the acquired turnover rates were fit to the Michaelis-Menten equation using GraphPad Prism to obtain kcat and Km. The kcat and Km of myristic acid and capric acid were determined similarly.
Unless otherwise noted, all experiments with PFL_0203 as described herein were performed using similar assays, procedures, and techniques as used in a given corresponding experiment as described in Example 1.
The fatty acid substrate specificity of PFL_0203 was investigated in a series of in vitro experiments. […] Thus, PFL_4321 and PFL_0203 share some overlap in suitable substrates; PFL_4321 is able to act on C10-C14 fatty acid substrates, and PFL_0203 is able to act on C10-C16 fatty acid substrates.

B1: PFL_4321: protein of 261 amino acids from Pseudomonas fluorescens Pf-5; non-heme iron (II)-dependent enzyme converting medium-chain fatty acids into terminal olefins (protein, listed as Pseudomonas fluorescens)
chain: MIDTFSRTGPLMEAASYPAWTQQLIQDCSESKRRVVEHELYQRMRDNKLSAKVMRQYLIGGWPVVEQFALYMAQNLTKTRFARHPGEDMARRWLMRNIRVELNHADYWVHWSRAHGVTLEDLQAQQVPPELHALSHWCWHTSSADSLIVAIAATNYAIEGATGEWSALVCSNGIYAAAFPEEDRKRAMKWLKMHAQYDDAHPWEALEIIVTLAGLNPTKALQAELRQAICKSYDYMYLFLERCMQQEKTAVTRERLALAEG
**Q.** Which results are given for B1?
**A.** In vitro activity toward C8:0 (substrate C8:0): x; In vitro activity toward C10:0 (substrate C10:0): ✓; In vitro activity toward C12:0 (substrate C12:0): ✓; In vitro activity toward C14:0 (substrate C14:0): ✓; In vitro activity toward C16:0 (substrate C16:0): x
